For this test, the target named is cruzain (Trypanosoma cruzi, UniProt P25779). In kind it is biochemical. The conditions noted are these: read-out: IC50 (μM) cruzain; triplicate; phosphate buffer pH 6.3, 37 °C.

By IC50 is commonly meant the point on the concentration scale where inhibition reaches its midpoint.

Chain of cruzain (P25779 123-467): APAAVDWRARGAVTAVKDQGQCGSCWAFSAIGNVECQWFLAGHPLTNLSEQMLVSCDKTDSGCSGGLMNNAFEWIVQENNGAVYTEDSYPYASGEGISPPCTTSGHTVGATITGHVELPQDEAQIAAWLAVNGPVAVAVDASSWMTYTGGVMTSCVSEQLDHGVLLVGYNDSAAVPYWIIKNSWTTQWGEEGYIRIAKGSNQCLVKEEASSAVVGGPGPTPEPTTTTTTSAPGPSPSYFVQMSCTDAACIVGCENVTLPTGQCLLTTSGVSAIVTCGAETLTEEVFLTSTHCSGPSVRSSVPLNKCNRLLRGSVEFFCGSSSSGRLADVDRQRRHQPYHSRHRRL

B1: cystatin (protein)
chain: SEDRSRLLGAPVPVDENDEGLQRALQFAMAEYNRASNDKYSSRVVRVISAKRQLVSGIKYILQVEIGRTTCPKSSGDLQSCEFHDEPEMAKYTTCTFVVYSIPWLNQIKLLESKCQ
modifications: two disulfides; Limits are the mature chain
As to B1, the half-maximal inhibitory concentration (IC50) was determined as 0.0085 ± 0.025 µM.

These data come from paper PMC7138024 (Journal of natural products, 2014).
